Patent US20180016352A1 (published 2018)

Legend:
Assay in all cases: indirect ELISA, recombinant receptor coated, anti-c-myc HRP
[1] = molecular target: recombinant EphA2 receptor (UniProt P29317 25-534, limits assumed)
Procedure: (§1) The target binding of the BsAbs was evaluated by indirect ELISA methods using PEG polymer and recombinant target proteins immobilized on ELISA plates. Individual wells of a 96 well Maxisorp plate were coated with 100 μL of 10 μg/mL of polymer (polyethylene glycol monomethyl ether methacrylate) or 10 μg/mL of target recombinant receptor (EphA2, VEGFR2, Mesothelin and EGFR) for 16-20 hr at 4C. PEG and target receptors were diluted in phosphate buffered saline (PBS pH 7.4). […] The blocker was decanted and 100 μL of BsAb, either in cell culture supernatant or purified protein stored in PBS, was added to each well. The BsAb was incubated for 2 hr and then decanted. The wells were washed five times manually in PBST and 100 μL of HRP labeled anti-c-myc antibody diluted 1/5000 in blocker was added to each well and incubated for 30 mins. The c-myc antibody was then decanted and the wells washed again five times manually with PBST. One hundred microliters of TMB was added to all wells and incubated for 10-15 mins or until adequate color development was identified. The TMB colorimetric reaction was neutralized by adding 100 μL of 2M sulfuric acid. The colorimetric reactions in each well was analyzed at an absorbance of 450 nm using the Spectramax plate reader.

recombinant Mesothelin = recombinant Mesothelin (UniProt Q13421 296-580, limits assumed)
Procedure: as §1

recombinant EGFR = molecular target: T1, recombinant EGFR (UniProt P00533 25-645, limits assumed)
T1 construct: It may be the same reagent as rEGFR-hFc; also called rEGFR
Procedure: as §1

Measured: binding result

Sequence of recombinant Mesothelin (Q13421 other isoform, or with tags, fused parts or gaps limits assumed): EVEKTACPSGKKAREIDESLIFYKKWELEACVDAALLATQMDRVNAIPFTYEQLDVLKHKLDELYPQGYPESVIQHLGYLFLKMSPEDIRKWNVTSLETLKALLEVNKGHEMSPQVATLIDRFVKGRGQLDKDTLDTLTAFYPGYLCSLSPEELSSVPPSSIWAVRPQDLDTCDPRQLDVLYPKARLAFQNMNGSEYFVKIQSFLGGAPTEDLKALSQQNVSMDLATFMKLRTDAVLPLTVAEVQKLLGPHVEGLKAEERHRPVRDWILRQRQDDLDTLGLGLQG
Sequence of recombinant EphA2 receptor (P29317 25-534 limits assumed): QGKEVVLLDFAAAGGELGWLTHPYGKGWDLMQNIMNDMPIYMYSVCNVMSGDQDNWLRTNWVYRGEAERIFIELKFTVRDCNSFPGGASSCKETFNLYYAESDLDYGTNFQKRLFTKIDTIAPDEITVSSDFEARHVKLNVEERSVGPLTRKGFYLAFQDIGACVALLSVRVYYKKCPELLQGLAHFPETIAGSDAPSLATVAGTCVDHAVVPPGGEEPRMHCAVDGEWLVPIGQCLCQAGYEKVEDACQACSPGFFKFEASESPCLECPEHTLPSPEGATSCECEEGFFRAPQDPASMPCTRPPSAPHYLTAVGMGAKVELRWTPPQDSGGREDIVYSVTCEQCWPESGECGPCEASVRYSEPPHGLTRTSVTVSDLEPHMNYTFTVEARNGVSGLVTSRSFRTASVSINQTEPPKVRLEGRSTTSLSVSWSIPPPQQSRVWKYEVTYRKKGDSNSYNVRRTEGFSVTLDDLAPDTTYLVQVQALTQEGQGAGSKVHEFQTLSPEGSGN

B1: VEGF-15.2 (BsAb targeting VEGFR2) (other)
chain: HHHHHHEVVKFMDVYQRSYCHPIETLVDIFQEYPDEIEYIFKPSCVPLMRCGGCCNDEGLECVPTEESNITMQIMRIKPHQGQHIGEMSFLQHNKCECRPKKDGSTSGSGKSSEGKGEVVKFMDVYQRSYCHPIETLVDIFQEYPDEIEYIFKPSCVPLMRCGGCCNDEGLECVPTEESNITMQIMRIKPHQGQHIGEMSFLQHNKCECRPKKDSGGGGSEVKLEESGGGLVQPGGSMKLSCVASGFTFSNYWMNWVRQSPEKGLEWVTEIRSKSNNYATHYAESVKGRFTISRDDSKGSVYLQMNNLRAEDTGIYYCSNRYYWGQGTLVTVSAGGGGSGGGGSGGGGSDIVMTQSHKFMSTSVRDRVTITCKASQDVNTSVAWYQQKPGQSPKLVIYWASTRHTGVPDRFTGSGSGTDFTLTISNVQSEDLADYFCLQYINYPYTFGGGTKLEIKEQKLISEEDLN
no binding: all assays above
